Patent US20060183194A1 (Genentech, published 2006)
Substitutions are numbered along the chain they refer to. In names and notes the source's numbering stands.

T1: ErbB-4 receptor-Ig fusion (human, UniProt Q15303 26-651)
T1 construct: extracellular domain;range 224-C-terminus; also called ErbB-4-Ig; not shown: human IgG heavy chain constant region from His224 (hinge) on
T1 sequence: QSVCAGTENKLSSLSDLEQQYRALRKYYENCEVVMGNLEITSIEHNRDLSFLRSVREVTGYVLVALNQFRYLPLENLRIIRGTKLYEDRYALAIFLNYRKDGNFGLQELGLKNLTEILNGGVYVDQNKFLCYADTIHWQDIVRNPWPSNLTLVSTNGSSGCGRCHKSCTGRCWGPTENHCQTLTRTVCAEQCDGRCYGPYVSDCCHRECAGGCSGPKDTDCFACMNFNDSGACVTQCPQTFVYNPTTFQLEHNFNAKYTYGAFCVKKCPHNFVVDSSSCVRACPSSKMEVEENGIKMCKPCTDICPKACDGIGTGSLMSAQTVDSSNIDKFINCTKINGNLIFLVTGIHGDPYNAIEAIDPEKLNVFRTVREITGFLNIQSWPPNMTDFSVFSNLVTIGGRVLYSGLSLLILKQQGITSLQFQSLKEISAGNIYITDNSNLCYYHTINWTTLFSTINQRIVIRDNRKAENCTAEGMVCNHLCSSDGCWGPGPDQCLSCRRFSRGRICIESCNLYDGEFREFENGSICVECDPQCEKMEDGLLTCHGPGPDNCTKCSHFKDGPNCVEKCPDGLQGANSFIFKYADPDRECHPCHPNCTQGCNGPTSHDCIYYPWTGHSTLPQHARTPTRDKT

B1: HRG4: HRG-β1 147-227 displayed on phage, fused to pIII 247 (ligand, phage M13)
chain: YVSSESPIRISVSTEGANTSSSTSTSTTGTSHLVKCAEKEKTFCVNGGECFMVKDLSNPSRYLCKCPNEFTGDRCQNYVMAGGSGGGSGSGDFDYEKMANANKGAMTENADENALQSDAKGKLDSVATDYGAAIDGFIGDVSGLANGNGATGDFAGSNSQMAQVGDGDNSPLMNNFRQYLPSLPQSVECRPFVFSAGKPYEFSIDCDKINLFRGVFAFLLYVATFMYVFSTFANILRNKES
notes: range 247-C-terminus; Monovalent phage display; also called pHRG4-g3
B2: recombinantly produced HRG-β1 177-244 (soluble) (ligand)
chain: SHLVKCAEKEKTFCVNGGECFMVKDLSNPSRYLCKCPNEFTGDRCQNYVMASFYKHLGIEFMEAEELY
B3: TH-WT: thioredoxin fused at its C-terminus to wild-type HRG-β1 146-244 (ligand)
chain: DDDDKAYVSSESPIRISVSTEGANTSSSTSTSTTGTSHLVKCAEKEKTFCVNGGECFMVKDLSNPSRYLCKCPNEFTGDRCQNYVMASFYKHLGIEFMEAEELY
notes: also called Trx-wild-type HRG-β1; not shown: thioredoxin (Trx) from pTrxFus
B4: HRG-β1 177-244 E195A on phage (ligand)
chain: B2 chain with E19A
notes: not shown: M13 pIII C-terminal fragment (from pIII residue 247), the phage display partner
B5: HRG-β1 177-244 E215A on phage (ligand)
chain: B2 chain with E39A
notes: not shown: M13 pIII fragment from residue 247 to the C-terminus (phage display carrier) and any cloning-site junction
B6: HRG-β1 177-244 F229A on phage (ligand)
chain: B2 chain with F53A
notes: as for B4
B7: HRG-β1 177-244 G193A on phage (ligand)
chain: B2 chain with G17A
notes: as for B4
B8: HRG-β1 177-244 G194A on phage (ligand)
chain: B2 chain with G18A
notes: as for B4
B9: HRG-β1 177-244 H178A on phage (ligand)
chain: B2 chain with H2A
notes: as for B4
B10: HRG-β1 177-244 K200A on phage (ligand)
chain: B2 chain with K24A
notes: also called K2OO; not shown: M13 pIII fragment from residue 247 to the C-terminus (phage display carrier) and any cloning-site junction
B11: HRG-β1 177-244 K211A on phage (ligand)
chain: B2 chain with K35A
notes: as for B5
B12: HRG-β1 177-244 L179A on phage (ligand)
chain: B2 chain with L3A
notes: as for B4
B13: HRG-β1 177-244 N192A on phage (ligand)
chain: B2 chain with N16A
notes: as for B4
B14: HRG-β1 177-244 P205A on phage (ligand)
chain: B2 chain with P29A
notes: as for B5
B15: HRG-β1 177-244 R207A on phage (ligand)
chain: B2 chain with R31A
notes: as for B5
B16: HRG-β1 177-244 S177A on phage (ligand)
chain: B2 chain with S1A
notes: as for B4
B17: HRG-β1 177-244 T217A on phage (ligand)
chain: B2 chain with T41A
notes: as for B5
B18: HRG-β1 177-244 V199A on phage (ligand)
chain: B2 chain with V23A
notes: as for B5
B19: HRG-β1 177-244 Y224A on phage (ligand)
chain: B2 chain with Y48A
notes: as for B4
B20: HRG5: HRG-β1 147-244 displayed on phage, fused to pIII 247 (ligand, phage M13)
chain: YVSSESPIRISVSTEGANTSSSTSTSTTGTSHLVKCAEKEKTFCVNGGECFMVKDLSNPSRYLCKCPNEFTGDRCQNYVMASFYKHLGIEFMEAEELYGGSGGGSGSGDFDYEKMANANKGAMTENADENALQSDAKGKLDSVATDYGAAIDGFIGDVSGLANGNGATGDFAGSNSQMAQVGDGDNSPLMNNFRQYLPSLPQSVECRPFVFSAGKPYEFSIDCDKINLFRGVFAFLLYVATFMYVFSTFANILRNKES
notes: range 247-C-terminus; Monovalent phage display; also called pHRG5-g3
B21: HRG6: HRG-β1 177-227 displayed on phage, fused to pIII 247 (ligand, phage M13)
chain: SHLVKCAEKEKTFCVNGGECFMVKDLSNPSRYLCKCPNEFTGDRCQNYVMAGGSGGGSGSGDFDYEKMANANKGAMTENADENALQSDAKGKLDSVATDYGAAIDGFIGDVSGLANGNGATGDFAGSNSQMAQVGDGDNSPLMNNFRQYLPSLPQSVECRPFVFSAGKPYEFSIDCDKINLFRGVFAFLLYVATFMYVFSTFANILRNKES
notes: range 247-C-terminus; also called pHRG6-g3
B22: HRG7: HRG-β1 177-228 displayed on phage, fused to pIII 247 (ligand, phage M13)
chain: SHLVKCAEKEKTFCVNGGECFMVKDLSNPSRYLCKCPNEFTGDRCQNYVMASGGSGGGSGSGDFDYEKMANANKGAMTENADENALQSDAKGKLDSVATDYGAAIDGFIGDVSGLANGNGATGDFAGSNSQMAQVGDGDNSPLMNNFRQYLPSLPQSVECRPFVFSAGKPYEFSIDCDKINLFRGVFAFLLYVATFMYVFSTFANILRNKES
notes: range 247-C-terminus

Experiments:
[1] = target: T2, ErbB-3 receptor-Ig fusion (human, UniProt P21860 20-643); test: displacement of 125I-HRG-β1 177-244 from plate-bound ErbB-3-Ig
T2 construct: extracellular domain;range 224-C-terminus; also called ErbB-3-Ig; 3/3 homodimer; not shown: human IgG heavy chain constant region from His224 (hinge) on

[2] = target: T1, ErbB-4 receptor-Ig fusion; test: displacement of 125I-HRG-β1 177-244 from plate-bound ErbB-4-Ig
[3] = target: T3, ErbB-2/3 receptor-Ig fusion (human, UniProt P04626 23-652; P21860 20-643); test: phage ELISA; soluble ErbB-2/3-Ig competes phage off plate-bound ErbB-2/3-Ig
T3 construct: extracellular domain;range 224-C-terminus; Co-expressed in HEK-293; also called ErbB-2/3-Ig; 2/3-heterodimer; not shown: human IgG heavy chain constant region from His224 (hinge) on

[4] = target: T1, ErbB-4 receptor-Ig fusion; test: phage ELISA; soluble ErbB-4-Ig as competitor
Experimental: (§1) Microtiter plates (Nunc Maxisorp™ 96-well plates, Inter Med, Denmark) for phage ELISA were prepared as follows. The wells were precoated overnight with 0.5 μg of rabbit anti-human IgG (Fc gamma fragment-specific) antibodies (Jackson Immunoresearch, West Grove, Pa.) in 100 μL 50 mM NaCO₃ (pH 9.6). The wells were blocked for 30 minutes (min) with 200 μL PBS containing 0.1% bovine serum albumin (BSA) and rinsed with wash buffer (PBS containing 0.05% Tween 20™). The wells were then coated with 0.1 μg ErbB-2/3-Ig in binding buffer (PBS, 0.1% BSA, 0.05% Tween 20™) for 1 h, and washed again.
(§2) Serial dilutions of soluble ErbB-2/3-Ig (competitor) and a concentration of phage predetermined to give 60% saturation (without competitor) were added to the wells in 100 μL binding buffer. Following incubation for 2 h at room temperature, plates were washed extensively and treated with a 1:900 dilution of anti-M13 horseradish peroxidase conjugate (Pharmacia, Piscataway, N.J.) for 20 min. The amount of phage binding was determined by assaying horseradish peroxidase activity using o-phenylenediamine dihydrochloride) substrate solution (Sigma Chemical Company, St. Louis, Mo.). EC₅₀ values were calculated as the concentration of soluble ErbB-2/3-Ig required to compete half of the phage off the plate.

[5] = target: T2, ErbB-3 receptor-Ig fusion; test: phage ELISA; soluble ErbB-3-Ig as competitor
Experimental: as §1, §2

T2 sequence (P21860 other isoform, or with tags, fused parts or gaps): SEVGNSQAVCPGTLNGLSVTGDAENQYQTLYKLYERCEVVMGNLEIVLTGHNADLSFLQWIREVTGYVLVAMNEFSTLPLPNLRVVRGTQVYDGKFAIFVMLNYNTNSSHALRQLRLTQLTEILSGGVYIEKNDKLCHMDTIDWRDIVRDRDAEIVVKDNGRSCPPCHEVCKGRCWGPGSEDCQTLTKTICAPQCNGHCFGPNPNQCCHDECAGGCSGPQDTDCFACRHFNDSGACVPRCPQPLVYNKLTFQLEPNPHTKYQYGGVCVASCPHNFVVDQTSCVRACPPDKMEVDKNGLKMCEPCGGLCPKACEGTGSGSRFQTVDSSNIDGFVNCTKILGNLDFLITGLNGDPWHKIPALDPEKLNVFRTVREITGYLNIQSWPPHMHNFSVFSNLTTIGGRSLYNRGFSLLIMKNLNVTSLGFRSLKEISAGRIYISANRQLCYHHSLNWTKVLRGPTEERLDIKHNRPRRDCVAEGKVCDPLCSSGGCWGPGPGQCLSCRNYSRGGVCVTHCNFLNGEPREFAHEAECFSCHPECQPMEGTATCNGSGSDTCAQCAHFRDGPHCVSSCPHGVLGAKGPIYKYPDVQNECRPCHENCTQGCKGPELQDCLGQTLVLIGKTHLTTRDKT

Molecule	EC50 [1] [nM]	EC50 [2] [nM]	EC50 [4] [nM]	also measured
Trx-HRG-β1 146-244 Y224A fusion (soluble) (from UniProt Q6DR98 147-244) (ligand)	339	24.5		
Trx-HRG-β1 146-244 F189A fusion (soluble) (from UniProt Q6DR98 147-244) (ligand)	975	565		
Trx-HRG-β1 146-244 L179A fusion (soluble) (from UniProt Q6DR98 147-244) (ligand)	394	51.7		
Trx-HRG-β1 146-244 N192A fusion (soluble) (from UniProt Q6DR98 147-244) (ligand)	1640	696		
Trx-HRG-β1 146-244 R207A fusion (soluble) (from UniProt Q6DR98 147-244) (ligand)	245	24.3		
Trx-HRG-β1 146-244 K211A fusion (soluble) (from UniProt Q6DR98 147-244) (ligand)	248	124		
Trx-HRG-β1 146-244 V199A fusion (soluble) (from UniProt Q6DR98 147-244) (ligand)		246		
Trx-HRG-β1 146-244 E195A fusion (soluble) (from UniProt Q6DR98 147-244) (ligand)	42	13.2		
Trx-HRG-β1 146-244 P205A fusion (soluble) (from UniProt Q6DR98 147-244) (ligand)	39.5	34.2		
Trx-HRG-β1 146-244 K200A fusion (soluble) (from UniProt Q6DR98 147-244) (ligand)	45.4	16.9		
Trx-HRG-β1 146-244 S177A fusion (soluble) (from UniProt Q6DR98 147-244) (ligand)	129	54.6		
Trx-HRG-β1 146-244 F216A fusion (soluble) (from UniProt Q6DR98 147-244) (ligand)	2550	173		
Trx-HRG-β1 146-244 T217A fusion (soluble) (from UniProt Q6DR98 147-244) (ligand)	145	32.7		
Trx-HRG-β1 146-244 F229A fusion (soluble) (from UniProt Q6DR98 147-244) (ligand)	177	89.9		
Trx-HRG-β1 146-244 G193A fusion (soluble) (from UniProt Q6DR98 147-244) (ligand)	26.9	76.3		
Trx-HRG-β1 146-244 E215A fusion (soluble) (from UniProt Q6DR98 147-244) (ligand)	156	104		
Trx-HRG-β1 146-244 H178A fusion (soluble) (from UniProt Q6DR98 147-244) (ligand)	476	138		
Trx-HRG-β1 146-244 G218A fusion (soluble) (from UniProt Q6DR98 147-244) (ligand)	668	608		
Trx-HRG-β1 146-244 G194A fusion (soluble) (from UniProt Q6DR98 147-244) (ligand)	1210	275		
B1				EC50 [3]: 38 nM
B2	9	14.8		

Molecule	EC50 [1] [nM]	EC50 [2] [nM]	EC50 [4] [nM]	also measured
B3	47.6	15.4		
B4			24	
B5			32	EC50 [5]: 51 nM
B6				EC50 [5]: 6 nM
B7			23	
B8			65	EC50 [5]: 500 nM
B9			32	
B10			25	EC50 [5]: 20 nM
B11			59	
B12			56	EC50 [5]: ~1000 nM
B13			188	
B14			8	EC50 [5]: 22 nM
B15			30	
B16			83	EC50 [5]: 67 nM
B17			14.2	
B18			47	EC50 [5]: 27 nM
B19			51	EC50 [5]: 865 nM
B20				EC50 [3]: 4.7 nM
B21				EC50 [3]: 40 nM
B22				EC50 [3]: 42 nM
